Assay results: article PMC5807055, “Atomic Structure of Type VI Contractile Sheath from Pseudomonas aeruginosa” (Structure(London, England:1993), 2018)

B2: P. aeruginosa TssC1 (H1-T6SS sheath protein), produced in E. coli (natural protein)
chain: MAELSTENLAQGQTTTEQTSEFASLLLQEFKPKTERAREAVETAVRTLAEHALEQTSLISNDAIKSIESIIAALDAKLTAQVNLIMHHADFQQLESAWRGLHYLVNNTETDEQLKIRVLNISKPELHKTLKKFKGTTWDQSPIFKKLYEEEYGQFGGEPYGCLVGDYYFDQSPPDVELLGEMAKISAAMHAPFISAASPTVMGMGSWQELSNPRDLTKIFTTPEYAGWRSLRESEDSRYIGLTMPRFLARLPYGAKTDPVEEFAFEEETDGADSSKYAWANSAYAMAVNINRSFKLYGWCSRIRGVESGGEVQGLPAHTFPTDDGGVDMKCPTEIAISDRREAELAKNGFMPLLHKKNTDFAAFIGAQSLQKPAEYDDPDATANANLAARLPYLFATCRFAHYLKCIVRDKIGSFKEKDEMQRWLQDWILNYVDGDPAHSTETTKAQHPLAAAEVVVEEVEGNPGYYNSKFFLRPHYQLEGLTVSLRLVSKLPSAKEA
notes: TssC1 of the H1-T6SS cluster of Pseudomonas aeruginosa; 498 residues in total (461 traced; M1-A37 not traced); also called VipB/IglB homologue; source: E. coli B834(DE3), co-produced with TssB1 from pET28-B1C1, purified as TssB1C1 tubes (size exclusion chromatography)

How the values were obtained:
[1] = target: B2; assay: cryo-EM structure; TssB1C1 sheaths (1 mg/ml) purified from E. coli, vitrified; helical reconstruction in RELION; contracted sheath with 13-fold symmetry, 3.3 Å; SEC buffer 50 mM Tris-HCl pH 9, 250 mM NaCl, 1 mM EDTA, 5 mM DTT; conditions: both partners purified
[2] = target: the molecule itself; assay: as above

B1: P. aeruginosa TssB1 (H1-T6SS sheath protein), produced in E. coli (natural protein)
chain: MGSTTSSQKFIARNRAPRVQIEYDVELYGAEKKVQLPFVMGVMADLAGKPAEPQAAVADRKFLEIDVDNFDARLKAMKPRVAFNVPNVLTGEGNLSLDITFESMDDFSPAAVARKVDSLNKLLEARTQLANLLTYMDGKTGAEEMIMKAIKDPALLQALASAPKPKDDEPQA
notes: TssB1 of the H1-T6SS cluster of Pseudomonas aeruginosa; 172 residues in total (132 traced; M1-S3 and M136-A172 not traced); also called VipA/IglA homologue; source: E. coli B834(DE3), co-produced with TssC1 from pET28-B1C1, purified as TssB1C1 tubes (size exclusion chromatography)
Q: Does B1 bind [1]?
A: Result: binds

Q: Does B2 bind [2]?
A: Result: binds
